The text below walks through data of publication PMC5969902.

The target in assay [1] is actin filament barbed ends elongating from unlabeled rabbit skeletal muscle actin (rabbit) (UniProt P68135). In words: single-filament microfluidics with fluorescence microscopy; survival of formin-bound barbed ends, exponential fit; 1 µM unlabeled actin, 5 µM profilin; KCl and configuration not given.
Assay [2] has the same target. In words: single-filament microfluidics with fluorescence microscopy; survival of formin-bound barbed ends, exponential fit; 1 µM unlabeled actin, no profilin; KCl and configuration not given.
Assay [3] shares this target. In words: single-filament microfluidics with fluorescence microscopy; survival of formin-bound barbed ends, exponential fit; 2 µM unlabeled actin, 5 µM profilin; KCl and configuration not given.
For assay [4] the target is unchanged. In words: single-filament microfluidics with fluorescence microscopy; survival of formin-bound barbed ends, exponential fit; 3 µM unlabeled actin, 5 µM profilin; KCl and configuration not given.
The target is the same in assay [5]. In words: single-filament microfluidics with fluorescence microscopy; survival of formin-bound barbed ends, exponential fit; 0.5 µM unlabeled actin, no profilin; KCl and configuration not given.
Assay [6] has the same target. In words: single-filament microfluidics with fluorescence microscopy; survival of formin-bound barbed ends, exponential fit; 3 µM unlabeled actin, 10 µM profilin; KCl and configuration not given.
For assay [7] the target is unchanged. In words: single-filament microfluidics with fluorescence microscopy; survival of formin-bound barbed ends, exponential fit; 2 µM unlabeled actin, 10 µM profilin; KCl and configuration not given.
The target is the same in assay [8]. In words: single-filament microfluidics with fluorescence microscopy; survival of formin-bound barbed ends, exponential fit; 1 µM unlabeled actin, 10 µM profilin; KCl and configuration not given.
The next assay deals with mDia1 FH1 (UniProt O08808). As to conditions: cited from earlier work.

Where “and” joins values, the source holds several entries; their conditions need not be identical. Equal entries are not always repeated.

profilin, sequence (P07274 whole entry): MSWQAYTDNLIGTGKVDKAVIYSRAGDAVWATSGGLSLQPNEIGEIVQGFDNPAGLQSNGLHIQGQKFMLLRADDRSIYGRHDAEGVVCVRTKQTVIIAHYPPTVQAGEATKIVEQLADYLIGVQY

In the case of “mDia1(FH2-DAD) (from UniProt O08808 1-1255) (domain or fragment)”, the koff in assay [1] is 0.0031 s⁻¹ and 0.0025 s⁻¹ and 0.0051 s⁻¹; in assay [2] it was 0.0047 s⁻¹ and 0.0089 s⁻¹; in assay [3], 0.0042 s⁻¹; in assay [4] it was 0.0063 s⁻¹ and 0.0085 s⁻¹; in [5] it was 0.004 s⁻¹; in [6], 0.0064 s⁻¹. The koff in assay [7] was 0.00226 s⁻¹; in assay [8] it was 0.0025 s⁻¹ and 0.0036 s⁻¹.

profilin (from UniProt P07274): the Kd in the assay with mDia1 FH1 is more than 100 µM.

Usually koff stands for the first-order rate constant of dissociation. Lower therefore signals a long-lived complex. One may read the Kd as the constant that tells how readily two partners part at equilibrium.
